Reference: patent US20210069338A1

Molecular target: human NPY2 receptor (HEK293/hNPY2R cells) (human) (UniProt P49146)
Assay: cell-based or functional assay

Chain of PYY(3-36) wild-type (peptide; modification not given) (chain, as listed by the source): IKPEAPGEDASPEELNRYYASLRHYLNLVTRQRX
Chain of human NPY2 receptor (HEK293/hNPY2R cells) (human) (P49146 whole entry): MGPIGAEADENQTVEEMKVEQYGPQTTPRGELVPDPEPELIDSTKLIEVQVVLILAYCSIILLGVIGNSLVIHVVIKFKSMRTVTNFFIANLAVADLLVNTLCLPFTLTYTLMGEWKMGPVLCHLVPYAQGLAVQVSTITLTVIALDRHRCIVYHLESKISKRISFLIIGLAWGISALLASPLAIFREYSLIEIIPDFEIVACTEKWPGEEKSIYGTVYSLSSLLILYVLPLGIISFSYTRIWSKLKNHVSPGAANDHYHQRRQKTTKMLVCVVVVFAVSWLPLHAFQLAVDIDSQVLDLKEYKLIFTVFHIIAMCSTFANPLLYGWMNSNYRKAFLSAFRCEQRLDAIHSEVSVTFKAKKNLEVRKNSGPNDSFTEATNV

- EC50 [nM], cAMP assay (inhibition of Forskolin stimulated cAMP accumulation in HEK293/hNPY2R cells), day 1: 0.09 nM
- EC50 [nM], cAMP assay (inhibition of Forskolin stimulated cAMP accumulation in HEK293/hNPY2R cells), day 2: 0.1 nM
Substance: PYY(3-36) wild-type (peptide; modification not given)
